Measurements reported in paper PMC5521794, “Understanding Russell’s viper venom factor V activator’s substrate specificity by surface plasmon resonance and in-silico studies” (PLoS ONE, 2017).

Target: Russell's viper venom factor V activator (Russell's viper, Natural, unmodified enzyme purified from Indian Russell's viper venom. The isoform (alpha or gamma) is not stated; gamma is assumed because the paper models RVV-V with PDB 3S9C. The candidate entry is)
Assay: SPR; Biacore T200; RVV-V immobilised on a CM5 chip by amine coupling (3000 RU); peptides flowed over at 62.5 uM to 1 mM in PBS, 30 ul/min; association 120 s, dissociation 300 s; regeneration 10 mM glycine pH 2.5; two-state binding model
Details: both partners purified

B1: Peptide II (factor V cleavage site II, Lys1008-Pro1022) (peptide)
peptide: KHTHHAPLSPRTFHP
notes: also called site II peptide; source: synthetic peptide; bought: Genei
Q: For B1, which Kd is on record?
A: 2780 µM
